The target of assay [1] is T1, H3KC36me3 nucleosomes (recombinant MLA nucleosomes reconstituted on 601 DNA) (Drosophila, UniProt P02299 1-136; P84040 1-103; P84051 1-124; P02283 1-123, H3KC36me3, cysteine at 36 alkylated to a thioether mimic of trimethyl-lysine (H3KC36me3)). In words: EMSA titration 1 (top). On the technique in general: A gel shift assay detects complexes by their altered migration in electrophoresis.

Assay [2] deals with T1, H3KC36me3 nucleosomes (recombinant MLA …). In words: EMSA titration 2 (bottom).

B1: GST-PWWP (PSIP1-PWWP domain, residues 3 to 100, GST fusion) (domain or fragment)
chain: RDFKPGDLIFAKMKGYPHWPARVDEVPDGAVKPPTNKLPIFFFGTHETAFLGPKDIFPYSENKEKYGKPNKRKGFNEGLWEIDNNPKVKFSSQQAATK
For the molecule B1, the figures for the dissociation constant (Kd) in assay [1] and in assay [2] were 400 nM and 600 nM, respectively.

What is called Kd is the free concentration of one partner at which half of the binding sites on the other are occupied at equilibrium, for simple one-to-one binding.

The record behind these values is publication PMC3663649 (2013).
